# US20030199671A1, “Binding molecules for Fc-region polypeptides” (priority 2001, published 2003)
# Columns and labels:
# [1] = target: human IgG4 (human) [IgG part: P01861]; assay: mini-column chromatography, immobilised ligand
# [2] = target: human IgG1 (human) [IgG part: P01857]; assay: mini-column chromatography, immobilised ligand
# [3] = target: human IgG2 (human) [IgG part: P01859]; assay: mini-column chromatography, immobilised ligand
# [4] = target: human IgG (unfractionated, polyclonal); assay: mini-column; ligand density not determined
# [5] = target: human IgG4 (human) [IgG part: P01861]; assay: batch binding, immobilised ligand
# [6] = target: human IgG3 (human) (UniProt P01860); assay: batch binding, immobilised ligand
# [7] = target: human IgG1 (human) [IgG part: P01857]; assay: batch binding, immobilised ligand
# [8] = target: human IgG2 (human) [IgG part: P01859]; assay: batch binding, immobilised ligand
# [9] = target: human IgG (unfractionated, polyclonal); assay: filterplate; ligand density not determined
# Sequence of human IgG4 (human) [IgG part: P01861] (P01861 other isoform, or with tags, fused parts or gaps): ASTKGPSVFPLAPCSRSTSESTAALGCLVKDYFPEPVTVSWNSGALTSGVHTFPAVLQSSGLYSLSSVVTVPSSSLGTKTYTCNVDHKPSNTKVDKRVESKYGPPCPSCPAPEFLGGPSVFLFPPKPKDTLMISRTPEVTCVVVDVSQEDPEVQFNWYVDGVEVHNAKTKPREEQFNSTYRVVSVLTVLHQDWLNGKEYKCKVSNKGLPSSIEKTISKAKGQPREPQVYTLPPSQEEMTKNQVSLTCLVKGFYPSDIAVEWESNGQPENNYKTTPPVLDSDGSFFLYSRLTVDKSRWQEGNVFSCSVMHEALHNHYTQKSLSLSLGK
# Sequence of human IgG2 (human) [IgG part: P01859] (P01859 other isoform, or with tags, fused parts or gaps): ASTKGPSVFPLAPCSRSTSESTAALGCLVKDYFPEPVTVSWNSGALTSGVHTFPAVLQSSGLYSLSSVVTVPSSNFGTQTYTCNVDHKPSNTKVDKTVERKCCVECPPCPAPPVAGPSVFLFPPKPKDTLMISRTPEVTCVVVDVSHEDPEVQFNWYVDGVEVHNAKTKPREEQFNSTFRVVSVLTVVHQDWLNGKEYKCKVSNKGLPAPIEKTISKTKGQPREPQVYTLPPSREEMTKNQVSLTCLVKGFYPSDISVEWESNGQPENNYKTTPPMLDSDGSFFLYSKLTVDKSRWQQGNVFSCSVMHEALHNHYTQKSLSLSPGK
# Sequence of human IgG1 (human) [IgG part: P01857] (P01857 other isoform, or with tags, fused parts or gaps): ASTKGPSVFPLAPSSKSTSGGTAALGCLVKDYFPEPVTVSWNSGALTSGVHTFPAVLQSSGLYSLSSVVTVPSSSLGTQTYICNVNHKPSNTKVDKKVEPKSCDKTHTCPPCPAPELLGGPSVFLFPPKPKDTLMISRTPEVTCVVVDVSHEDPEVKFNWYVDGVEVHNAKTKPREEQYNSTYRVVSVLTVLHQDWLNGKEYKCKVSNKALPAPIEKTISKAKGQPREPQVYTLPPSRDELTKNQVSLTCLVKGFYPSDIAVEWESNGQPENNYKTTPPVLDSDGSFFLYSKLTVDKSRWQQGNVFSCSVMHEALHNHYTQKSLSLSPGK
# Sequence of human IgG3 (human) (P01860 other isoform, or with tags, fused parts or gaps): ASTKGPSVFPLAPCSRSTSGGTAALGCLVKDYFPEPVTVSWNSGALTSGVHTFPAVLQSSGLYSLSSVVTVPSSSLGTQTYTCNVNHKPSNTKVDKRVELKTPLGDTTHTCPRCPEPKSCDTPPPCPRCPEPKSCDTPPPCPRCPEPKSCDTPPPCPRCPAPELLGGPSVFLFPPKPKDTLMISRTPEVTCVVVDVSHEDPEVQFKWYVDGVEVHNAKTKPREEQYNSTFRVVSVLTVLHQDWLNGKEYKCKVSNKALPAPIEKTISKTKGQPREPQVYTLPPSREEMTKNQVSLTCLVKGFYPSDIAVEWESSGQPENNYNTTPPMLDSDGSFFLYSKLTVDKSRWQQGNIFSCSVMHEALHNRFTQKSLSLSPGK
substance,measurement,setting,value
Protein A (from UniProt P38507 37-327),binding efficiency,[1],> 90%
same,binding efficiency,[2],> 90%
same,binding efficiency,[3],> 90%
same,10% Breakthrough Capacity (mg IgG/mL resin),[4],12.9
same,Total Dynamic Capacity (mg IgG/mL resin),[4],16.3
same,Bound (% of Total Load),[5],89%
same,bdg % (of Total Load),[5],92%
same,Bound (% of Total Load),[6],0%
same,bdg % (of Total Load),[6],5%
same,Bound (% of Total Load),[7],96%
same,bdg % (of Total Load),[7],93%
same,Bound (% of Total Load),[8],85%
same,bdg % (of Total Load),[8],93%
same,Static Capacity (mg IgG/mL resin),[9],11.1
